Experimental data published in US20220162327A1, “ANTI-CCR5 AGENTS AND METHODS OF TREATMENT THAT BLOCK CANCER METASTASIS OR ENHANCE CELL DEATH INDUCED BY DNA DAMAGING CHEMOTHERAPY” (CytoDyn Inc., priority 2019, published 2022).
“Also recorded” adds a separate entry of the source. Like-named read-outs stand apart in the source and are kept apart here.

Tests used:
MDA-MB-231 cells [1] = assay: 3D-matrigel invasion assay, CCL5 as chemoattractant; assay type: cell-based, human
Source text: FIG. 3A, FIG. 3B, FIG. 3C, and FIG. 3D. […] The ability of breast cancer cells to invade extra-cellular matrix is […] an important step in tumor metastasis (Zetter, 1990). To test the ability of PRO140 to block 3D-matrigel invasion assay, MDA-MB-231 cells were used. CCL5 was used as chemoattractant to induce invasion. The small molecule inhibitor of CCR5, vicriviroc, was used as a form of positive control.

[2] = system: MDA-MB-231 cells stable transfected with Luc2-GFP; assay: Mouse lung metastasis model, bioluminescence imaging; assay type: in vivo; conditions: mice, tail-vein injection, treated one day before injection
Experimental: FIG. 4A and FIG. 4B. Leronlimab block breast cancer metastasis in mice. […] MDA-MB-231 cells stable transfected with Luc2-GFP was injected into the mice through tail-vein. The mice in each group were treated one day before injection. The metastasis tumor formed in the lung was determined by bioluminescence imaging. […] The quantitative analysis of tumor size in each group was shown in (FIG. 4B). The size of tumors defined by photon flux (x10^8 p/sec/cm^2/sr).

MDA-MB-231 cells [3] = assay: MTT assay, leronlimab combined with doxorubicin; assay type: cell-based, human; conditions: 10 mg/ml leronlimab with different dose of doxorubicin, 3 days
Experimental: FIG. 5A and FIG. 5B. […] The MTT assay was used to determine the relative cell number (FIG. 5A). The cells treated with maraviroc ([…]) combining with different dose of doxorubicin were used as positive control (FIG. 5B). Data are shown as mean±SEM for N=8.

[4] = Phase Ib/II study, safety; assay type: in vivo; conditions: Subject 706-001, at Cycle 6 Day 1 visit, weekly leronlimab and carboplatin every three weeks
Source text: The primary objective of Phase 1b is to determine the safety, tolerability and maximum tolerate dose (MTD) of PRO 140 in patients with TNBC, when combined with carboplatin to define a recommended Phase II dose of the combination. The primary objective of phase 2b is to evaluate the impact on progression-free survival (PFS) of the combination PRO 140 and carboplatin in patients with CCR5+ TNBC previously treated with anthracyclines and taxanes in neoadjuvant and adjuvant setting.
Each treatment cycle consisted of 21 days. […] This treatment regimen was used for all subjects enrolled in the mTNBC study, unless otherwise indicated.

[5] = system: breast cancer tumor model; assay: Breast cancer tumor model; assay type: in vivo
Source text: C-C Chemokine receptor type-5 (CCR5) is selectively reexpressed on the surface of tumor cells during the dedifferentiation and transformation process (velasco-velazquez-2012).
Another cancer hallmark that CCR5 presents a potential role is the DNA repair pathways. This cancer characteristic attenuates apoptosis and contributes to chemotherapy resistance and tumor cells immortality. Studies have correlated the altered expression of C-C Chemokine Ligand type-5 (CCL5) with disease progression in patients with breast cancer [Luboshits, 1999] [Niwa, 2001] [Zhang, 2009].

CCR5 [6] = target: T1, CCR5 (Homo sapiens, UniProt P51681); conditions: CHO-K1 cells, cited from earlier work
HIV-1 = conditions: at concentrations that do not affect CCR5 chemokine receptor activity in vitro; cited from earlier work
[7] = human, in vivo; cited from earlier work
CCR5 [8] = target: T1, CCR5; assay: CCL5 induced calcium responses in MDA-MB-231-CCR5 cells (Fluo-4, living cell image); assay type: cell-based; set-up: expressed in transfected cells; host or cells: MDA-MB-231 human breast cancer cell line (MDA-MB-231-CCR5)
Source text: FIG. 2A, FIG. 2B, FIG. 2C, and FIG. 2D. […] CCR5 activation induces calcium flux (Mueller et al., 2002; Petkovic et al., 2004). […] Fluo-4 was used as calcium concentration indicator. The CCR5 antagonist, vicriviroc, was used as positive control (FIGS. 2A and 2D).

T1 sequence (P51681 whole entry): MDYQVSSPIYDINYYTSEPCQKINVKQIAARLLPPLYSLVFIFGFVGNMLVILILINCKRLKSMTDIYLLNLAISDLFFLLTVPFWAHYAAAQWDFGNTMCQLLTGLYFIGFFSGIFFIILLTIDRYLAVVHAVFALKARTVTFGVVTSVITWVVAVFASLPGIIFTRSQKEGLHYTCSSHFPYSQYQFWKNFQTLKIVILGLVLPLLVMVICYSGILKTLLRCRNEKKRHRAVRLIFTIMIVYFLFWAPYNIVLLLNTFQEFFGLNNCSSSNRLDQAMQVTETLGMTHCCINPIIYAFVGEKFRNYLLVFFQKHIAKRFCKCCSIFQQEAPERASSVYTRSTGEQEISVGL

B1: leronlimab: humanized monoclonal antibody to CCR5; humanized version of the murine mAb PA14 (antibody, chains of the INN, looked up, V domains shown)
VH: EVQLVESGGGLVKPGGSLRLSCAASGYTFSNYWIGWVRQAPGKGLEWIGDIYPGGNYIRNNEKFKDKTTLSADTSKNTAYLQMNSLKTEDTAVYYCGSSFGSNYVFAWFTYWGQGTLVTVSS
VL: DIVMTQSPLSLPVTPGEPASISCRSSQRLLSSYGHTYLHWYLQKPGQSPQLLIYEVSNRFSGVPDRFSGSGSGTDFTLKISRVEAEDVGVYYCSQSTHVPLTFGQGTKVEIK
- effect on MDA-MB-231 cell invasion (MDA-MB-231 cells [1]; 175 µg/ml): can effectively block MDA-MB-231 cell invasion
- effect on MDA-MB-231 cell invasion (MDA-MB-231 cells [1]; 350 µg/ml): can effectively block MDA-MB-231 cell invasion
- effect on CCL5-induced cell invasion (MDA-MB-231 cells [1]; vicriviroc as positive control): reduced CCL5-induced MDA-MB-231 breast cancer cell invasion with similar efficacy as vicriviroc; also recorded: blocked 3D matrigel invasion
- breast cancer tumor metastasis to the lung [2]: blocks human breast cancer xenograft metastasis in mice; also recorded: dramatically decreased breast cancer tumor metastasis to the lung
- cell death induced by doxorubicin (MDA-MB-231 cells [3]): augmented cell killing by DNA damage inducing agents including Doxorubicin; also recorded: enhances the cell death induced by doxorubicin
- serious adverse events [4]: no serious adverse events had been reported
- tumor volume [5]: significant reduction in tumor volume
- effect on chemotaxis (CCR5 [6]; administered with CCL5): reduces CCL5-induced chemotaxis
- effect on chemotaxis (CCR5 [6]; alone): does not affect chemotaxis of CHO-K1 cells
- inhibition of HIV-1 entry and replication (HIV-1): potently inhibits HIV-1 entry and replication
- adverse events [7]: without significant adverse events reported
- effect on CCL5 induced calcium responses (CCR5 [8]): can block CCL5 induced calcium responses
- calcium response at calcium peak induce by CCL5 (CCR5 [8]; Fluo-4, control cells 1.23±0.10, P<0.001): 0.54±0.13
- effect on CCL5 induced calcium responses (CCR5 [8]; listed as Leronlimab): abrogated CCL5 induced Ca^+2 flux
